Test results taken from the supplement of paper PMC10567573.

B1: STX5 (parent)
chain: RSEFTLMAKRIGKDLSNTFAKLEK
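Also: lentivirally expressed fusions sorted by FACS into six bins by GFP to DsRed ratio, PSI derived from sequencing read proportions per bin multiplied by bin number.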

Variants of: B1
Test: protein stability index of a GFP-peptide fusion (GPS, HEK-293T) (PSI 1-6); higher = more stable
Conditions: c terminus: a fixed tail appended
RSEFTLPAKRIGKDLSNTFAKLEK [M7P] showed a protein stability index of 3.36.
With RSEFTLGAKRIGKDLSNTFAKLEK [M7G] the protein stability index was 2.73.
In the case of RSEFTLDAKRIGKDLSNTFAKLEK [M7D], the protein stability index is reported as 4.15.
Work on RSEFTLKAKRIGKDLSNTFAKLEK [M7K] yielded a protein stability index of 3.75.
Work on RSEFTLYAKRIGKDLSNTFAKLEK [M7Y] yielded a protein stability index of 2.39.
In the case of RSEFTLAAKRIGKDLSNTFAKLEK [M7A], the protein stability index is reported as 1.64.
Variant RSEFTLRAKRIGKDLSNTFAKLEK [M7R] has a protein stability index of 2.72.
Work on RSEFTLTAKRIGKDLSNTFAKLEK [M7T] yielded a protein stability index of 2.54.
Variant RSEFTLQAKRIGKDLSNTFAKLEK [M7Q] has a protein stability index of 3.21.
RSEFTLSAKRIGKDLSNTFAKLEK [M7S] gave a protein stability index of 3.12.
RSEFTLNAKRIGKDLSNTFAKLEK [M7N] gave a protein stability index of 3.04.
Variant RSEFTLEAKRIGKDLSNTFAKLEK [M7E] has a protein stability index of 3.2.
Work on RSEFTLWAKRIGKDLSNTFAKLEK [M7W] yielded a protein stability index of 3.31.
For RSEFTLFAKRIGKDLSNTFAKLEK [M7F], the protein stability index was 3.38.
For RSEFTLCAKRIGKDLSNTFAKLEK [M7C], the protein stability index was 1.01.
For RSEFTLHAKRIGKDLSNTFAKLEK [M7H], the protein stability index was 2.03.
Variant RSEFTLVAKRIGKDLSNTFAKLEK [M7V] has a protein stability index of 2.73.
For RSEFTLMAFRIGKDLSNTFAKLEK [K9F], the protein stability index was 1.53.
RSEFTLMAHRIGKDLSNTFAKLEK [K9H] showed a protein stability index of 2.64.
RSEFTLMADRIGKDLSNTFAKLEK [K9D] gave a protein stability index of 2.83.
Variant RSEFTLMACRIGKDLSNTFAKLEK [K9C] has a protein stability index of 2.1.
Work on RSEFTLMAERIGKDLSNTFAKLEK [K9E] yielded a protein stability index of 2.56.
Variant RSEFTLMAARIGKDLSNTFAKLEK [K9A] has a protein stability index of 1.66.
With RSEFTLMAGRIGKDLSNTFAKLEK [K9G] the protein stability index was 2.01.
Variant NSEFTLMAKRIGKDLSNTFAKLEK [R1N] has a protein stability index of 1.82.
QSEFTLMAKRIGKDLSNTFAKLEK [R1Q] gave a protein stability index of 1.49.
In the case of DSEFTLMAKRIGKDLSNTFAKLEK [R1D], the protein stability index is reported as 1.92.
SSEFTLMAKRIGKDLSNTFAKLEK [R1S] gave a protein stability index of 2.54.
Work on ISEFTLMAKRIGKDLSNTFAKLEK [R1I] yielded a protein stability index of 1.92.
YSEFTLMAKRIGKDLSNTFAKLEK [R1Y] showed a protein stability index of 4.8.
Variant LSEFTLMAKRIGKDLSNTFAKLEK [R1L] has a protein stability index of 3.25.
For HSEFTLMAKRIGKDLSNTFAKLEK [R1H], the protein stability index was 3.98.
With KSEFTLMAKRIGKDLSNTFAKLEK [R1K] the protein stability index was 2.08.
Variant ASEFTLMAKRIGKDLSNTFAKLEK [R1A] has a protein stability index of 2.12.
VSEFTLMAKRIGKDLSNTFAKLEK [R1V] gave a protein stability index of 2.54.
ESEFTLMAKRIGKDLSNTFAKLEK [R1E] showed a protein stability index of 1.45.
With PSEFTLMAKRIGKDLSNTFAKLEK [R1P] the protein stability index was 2.63.
In the case of TSEFTLMAKRIGKDLSNTFAKLEK [R1T], the protein stability index is reported as 2.7.
RSEFQLMAKRIGKDLSNTFAKLEK [T5Q] gave a protein stability index of 1.02.
Work on RSEFKLMAKRIGKDLSNTFAKLEK [T5K] yielded a protein stability index of 1.54.
RSEFHLMAKRIGKDLSNTFAKLEK [T5H] gave a protein stability index of 2.58.
Work on RSEFELMAKRIGKDLSNTFAKLEK [T5E] yielded a protein stability index of 1.35.
RSEFPLMAKRIGKDLSNTFAKLEK [T5P] gave a protein stability index of 2.69.
RSEFILMAKRIGKDLSNTFAKLEK [T5I] gave a protein stability index of 2.62.
For RSEFWLMAKRIGKDLSNTFAKLEK [T5W], the protein stability index was 2.76.
With RSEFCLMAKRIGKDLSNTFAKLEK [T5C] the protein stability index was 1.8.
Variant RSEFDLMAKRIGKDLSNTFAKLEK [T5D] has a protein stability index of 2.25.
Work on RSEFLLMAKRIGKDLSNTFAKLEK [T5L] yielded a protein stability index of 2.46.
For RSEFFLMAKRIGKDLSNTFAKLEK [T5F], the protein stability index was 3.04.
Work on RSEFNLMAKRIGKDLSNTFAKLEK [T5N] yielded a protein stability index of 2.57.
In the case of RSEFTVMAKRIGKDLSNTFAKLEK [L6V], the protein stability index is reported as 2.28.
For RSEFTHMAKRIGKDLSNTFAKLEK [L6H], the protein stability index was 1.86.
With RSEFTCMAKRIGKDLSNTFAKLEK [L6C] the protein stability index was 2.21.
With RSEFTWMAKRIGKDLSNTFAKLEK [L6W] the protein stability index was 2.53.
RSEFTQMAKRIGKDLSNTFAKLEK [L6Q] showed a protein stability index of 2.23.
With RSEFTIMAKRIGKDLSNTFAKLEK [L6I] the protein stability index was 3.08.
In the case of RSEFTGMAKRIGKDLSNTFAKLEK [L6G], the protein stability index is reported as 1.63.
Work on RSEFTFMAKRIGKDLSNTFAKLEK [L6F] yielded a protein stability index of 2.36.
RSEFTPMAKRIGKDLSNTFAKLEK [L6P] gave a protein stability index of 2.85.
Variant RSEFTTMAKRIGKDLSNTFAKLEK [L6T] has a protein stability index of 2.48.
Variant RSEFTNMAKRIGKDLSNTFAKLEK [L6N] has a protein stability index of 2.06.
Variant RSEFTDMAKRIGKDLSNTFAKLEK [L6D] has a protein stability index of 1.4.
RSEFTRMAKRIGKDLSNTFAKLEK [L6R] gave a protein stability index of 3.66.
Work on RSESTLMAKRIGKDLSNTFAKLEK [F4S] yielded a protein stability index of 3.69.
RSEYTLMAKRIGKDLSNTFAKLEK [F4Y] showed a protein stability index of 2.1.
RSEMTLMAKRIGKDLSNTFAKLEK [F4M] showed a protein stability index of 2.35.
RSEDTLMAKRIGKDLSNTFAKLEK [F4D] gave a protein stability index of 3.88.
Variant RSEQTLMAKRIGKDLSNTFAKLEK [F4Q] has a protein stability index of 3.49.
Variant RSELTLMAKRIGKDLSNTFAKLEK [F4L] has a protein stability index of 2.33.
Work on RSERTLMAKRIGKDLSNTFAKLEK [F4R] yielded a protein stability index of 3.34.
RSEHTLMAKRIGKDLSNTFAKLEK [F4H] showed a protein stability index of 3.31.
RSEATLMAKRIGKDLSNTFAKLEK [F4A] showed a protein stability index of 2.48.
Variant RSEVTLMAKRIGKDLSNTFAKLEK [F4V] has a protein stability index of 1.8.
With RSEKTLMAKRIGKDLSNTFAKLEK [F4K] the protein stability index was 3.62.
For RSEGTLMAKRIGKDLSNTFAKLEK [F4G], the protein stability index was 3.64.
RSENTLMAKRIGKDLSNTFAKLEK [F4N] gave a protein stability index of 2.98.
With RSECTLMAKRIGKDLSNTFAKLEK [F4C] the protein stability index was 2.65.
For RSEPTLMAKRIGKDLSNTFAKLEK [F4P], the protein stability index was 3.58.
With RSEWTLMAKRIGKDLSNTFAKLEK [F4W] the protein stability index was 3.86.
For RSEETLMAKRIGKDLSNTFAKLEK [F4E], the protein stability index was 4.58.
With RSEFTLMCKRIGKDLSNTFAKLEK [A8C] the protein stability index was 2.49.
Work on RSEFTLMKKRIGKDLSNTFAKLEK [A8K] yielded a protein stability index of 2.99.
RSEFTLMWKRIGKDLSNTFAKLEK [A8W] showed a protein stability index of 2.44.
For RSEFTLMRKRIGKDLSNTFAKLEK [A8R], the protein stability index was 2.79.
In the case of RSEFTLMGKRIGKDLSNTFAKLEK [A8G], the protein stability index is reported as 2.49.
In the case of RSEFTLMQKRIGKDLSNTFAKLEK [A8Q], the protein stability index is reported as 2.96.
In the case of RSEFTLMSKRIGKDLSNTFAKLEK [A8S], the protein stability index is reported as 2.1.
In the case of RSEFTLMTKRIGKDLSNTFAKLEK [A8T], the protein stability index is reported as 1.54.
Work on RSEFTLMNKRIGKDLSNTFAKLEK [A8N] yielded a protein stability index of 3.4.
RSEFTLMPKRIGKDLSNTFAKLEK [A8P] showed a protein stability index of 3.46.
Variant RSEFTLMYKRIGKDLSNTFAKLEK [A8Y] has a protein stability index of 1.85.
Work on RSEFTLMDKRIGKDLSNTFAKLEK [A8D] yielded a protein stability index of 3.02.
With RSEFTLMEKRIGKDLSNTFAKLEK [A8E] the protein stability index was 2.87.
Variant RSEFTLMIKRIGKDLSNTFAKLEK [A8I] has a protein stability index of 2.79.
RSEFTLMHKRIGKDLSNTFAKLEK [A8H] gave a protein stability index of 3.46.
